Data published in paper doi:10.1101/2022.10.18.22281172.

How the values were obtained:
[1] = target: cynomolgus macaque FcRn (cynomolgus macaque) (UniProt Q8SPV9); assay: SPR
[2] = target: human neonatal Fc receptor (human) (UniProt P55899); assay: SPR
UniProt P55899, sequence (P55899 24-365): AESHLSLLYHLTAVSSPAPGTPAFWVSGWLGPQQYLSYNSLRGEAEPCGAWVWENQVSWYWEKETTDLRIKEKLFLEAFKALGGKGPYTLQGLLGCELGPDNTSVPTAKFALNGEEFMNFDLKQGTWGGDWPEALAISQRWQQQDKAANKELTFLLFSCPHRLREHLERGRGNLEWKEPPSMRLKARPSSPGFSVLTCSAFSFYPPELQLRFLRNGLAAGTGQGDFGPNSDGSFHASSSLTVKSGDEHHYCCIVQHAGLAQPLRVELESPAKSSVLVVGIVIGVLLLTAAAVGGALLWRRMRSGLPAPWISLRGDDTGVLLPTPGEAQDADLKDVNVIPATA

UniProt Q8SPV9, sequence (Q8SPV9 24-365): as the sequence (P55899 24-365) above, with N39D, E44Q, G99S, S189G, S190N, L217M, S269T, V319S, L332S, V335I counted along it

## adintrevimab (antibody)
[1]
  fold higher affinity relative to ADG2: 5 fold
[2]
  fold higher affinity relative to ADG2: 6 fold
